# Reference: publication PMC11714857, “PRDX5 and PRDX6 translocation and oligomerization in bull sperm: a response to cryopreservation-induced oxidative stress” (Cell Communication and Signaling : CCS, 2025)
# Where “and” joins values, the source holds several entries; their conditions need not be identical. Equal entries are not always repeated.
# B1: peroxiredoxin 6 (enzyme, bovine (endogenous in bull sperm), UniProt O77834 1-224, looked up)
# chain: MPGGLLLGDEAPNFEANTTIGRIRFHDYLGDSWGILFSHPRDFTPVCTTELGRAAKLAPEFAKRNVKMIALSIDSVEDHLAWSKDINAYNGEEPTEKLPFPIIDDKNRDLAIQLGMLDPAEKDEKGMPVTARVVFIFGPDKKLKLSILYPATTGRNFDEILRVIISLQLTAEKRVATPVDWKNGDSVMVLPTIPEEEAKKLFPKGVFTKELPSGKKYLRYTPQP
# notes: peroxiredoxin 6 (PRDX6), bovine, endogenous in bull sperm; runs as a single 25 kDa band in standard SDS-PAGE; The oligomers are disulfide-linked, as they appear only in non-reducing SDS-PAGE; also called PRDX6; source: endogenous, bull sperm lysate (native protein extraction; fresh or cryopreserved sperm)
# B2: peroxiredoxin 5 (enzyme, Bos taurus (endogenous in bull sperm), UniProt Q9BGI1 58-219, looked up)
# chain: MAPIKVGDAIPSVEVFEKEPGNKVNLAELFKGKKGVLFGLPGAFTPGCSKTHLPGFVEQADALKAKGIQVVACLTVNDVFVTEEWARAHKAEGKVRLLADPSGTFGKETDLLLDDSLLFLFGNHRLKRFSMVIEDGIVKSLNVEPDGTGLTCSLAPNILSQL
# notes: peroxiredoxin 5 (PRDX5) from Bos taurus, endogenous in bull sperm; runs as a single 17.5 kDa band in standard SDS-PAGE; The oligomers are disulfide-linked, as they appear only in non-reducing SDS-PAGE; also called PRDX5; source: endogenous, bull sperm lysate (native protein extraction; fresh or cryopreserved sperm)
# Biological target: the molecule itself
# Assay: non-reducing SDS-PAGE with Western blot; native protein extracts of fresh or cryopreserved bull sperm, 30 ug protein, Laemmli buffer with 1.275% SDS and without 2-mercaptoethanol, 12% gels; compared with standard reducing SDS-PAGE; oligomer bands stronger after cryopreservation
row,Protein,stoichiometry N
1,B1,2 and 6
2,B2,6
